Reference: patent US20100183617A1 (UNIVERSITY OF VIRGINIA PATENT FOUNDATION, published 2010)

B1: native mouse SLLP1 of sperm (acrosomal, ˜15 kDa form) (ligand)
chain: KVFSRCELAKEMHDFGLDGYRGYNLADWVCLAYYTSGFNTNAVDHEADGSTNNGIFQISSRRWCRTLASNGPNLCRIYCTDLLNNDLKDSIVCAMKIVQEPLGLGYWEAWRHHCQGRDLSDWVDGCDF
notes: Only a ˜15 kDa form is found in sperm extracts; The predicted processed form is residues 94-221 (cleavage between A93 and K94 is only predicted); On sperm or in sperm extracts; also called native SLLP1; native mSLLP1
B2: in vitro translated 35S-methionine labeled mature mouse SLLP1 (128 residues) with N-terminal HA tag (ligand, not shown: small tags and cut ends)
chain: B1 chain
modifications: 35S-methionine labeled
notes: ˜16 kD; also called SLLP1 (S); S-SLLP1
B3: purified soluble recombinant mouse SLLP1 (mature form, residues 94-221), His-tagged, expressed in E. coli (ligand)
chain: B1 chain
notes: also called rSLLP1; rec SLLP1; not shown: two vector-encoded residues at the N-terminus and eight at the C-terminus including the six-histidine tag (pET28b+)
B4: human Lamin C (negative control construct of the two-hybrid system) (other)
chain: SEEVVSREVSGIKAAYEAELGDARKTLDSVAKERARLQLELSKVREEFKELKARNTKKEGDLIAAQARLKDLEALLNSKEAALSTALSEKRTLEGELHDLRGQVAKLEAALGEAKKQLQDEMLRRVDAENRLQTMKEELDFQKNIYSEELRETKRRHETRLVEID
B5: in vitro translated 35S-methionine labeled SAS1R N-terminus (121 residues) with N-terminal c-Myc tag (receptor, not shown: small tags and cut ends)
chain: MGAPSASRCSGVCSTSVPEGFTPEGSPVFQDKDIPAINQGLISEETPESSFLVEGDIIRPSPFRLLSVTNNKWPKGVGGFVEIPFLLSRKYDELSRRVIMDAFAEFERFTCIRFVAYHGQR
modifications: 35S-methionine labeled
notes: ˜21 kD; also called N-terminus (N); N-SAS1R N-terminus

Key:
[1] = molecular target: T1, purified recombinant mouse SAS1R (mature, 414 residues), His-tagged, expressed in E. coli (mouse, UniProt Q6HA09 24-435); test: co-localization by immunofluorescence, capacitated sperm incubated with rSAS1R
T1 construct: Purified from the insoluble fraction in 8 M urea on a Ni column; The preparation also holds a ˜25 kD C-terminal fragment; ZEP is the earlier name of SAS1R; also called rSAS1R; rec SAS1R; not shown: twenty vector-encoded (pET-28b(+)) amino acids including a six histidine tag at the N-terminus; ten vector-encoded amino acids including a six histidine tag at the C-terminus
T1 sequence: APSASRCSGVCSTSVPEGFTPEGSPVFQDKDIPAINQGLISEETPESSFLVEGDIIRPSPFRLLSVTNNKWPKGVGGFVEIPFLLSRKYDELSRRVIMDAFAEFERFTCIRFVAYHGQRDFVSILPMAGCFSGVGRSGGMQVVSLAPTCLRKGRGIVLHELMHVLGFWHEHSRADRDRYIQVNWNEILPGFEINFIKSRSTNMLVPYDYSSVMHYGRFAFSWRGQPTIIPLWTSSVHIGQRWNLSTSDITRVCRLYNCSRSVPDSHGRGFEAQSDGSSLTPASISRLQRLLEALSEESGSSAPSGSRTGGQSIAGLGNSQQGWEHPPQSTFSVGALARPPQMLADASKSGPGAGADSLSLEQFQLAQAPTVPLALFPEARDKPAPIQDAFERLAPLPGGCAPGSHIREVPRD

[2] = molecular target: T2, in vitro translated 35S-methionine labeled full length SAS1R with N-terminal c-Myc tag (mouse, UniProt Q6HA09 24-435, 35S-methionine labeled); test: co-IP of in vitro translated 35S-labeled proteins, anti-Myc beads
T2 construct: ˜50 kD; also called SAS1R full length (F); F-SAS1R full length
T2 sequence: T1 sequence

[3] = molecular target: T1, purified recombinant mouse SAS1R …; test: far-western overlay
[4] = molecular target: T3, SV40 large T-antigen (control construct of the two-hybrid system; HA-tagged when translated in vitro) (SV40, UniProt P03070 86-708); test: yeast two-hybrid, high stringency plate
T3 construct: Control used both in the Y2H assay and in the co-IP (HA tag); also called T-antigen (T)
T3 sequence (P03070 86-708 limits assumed): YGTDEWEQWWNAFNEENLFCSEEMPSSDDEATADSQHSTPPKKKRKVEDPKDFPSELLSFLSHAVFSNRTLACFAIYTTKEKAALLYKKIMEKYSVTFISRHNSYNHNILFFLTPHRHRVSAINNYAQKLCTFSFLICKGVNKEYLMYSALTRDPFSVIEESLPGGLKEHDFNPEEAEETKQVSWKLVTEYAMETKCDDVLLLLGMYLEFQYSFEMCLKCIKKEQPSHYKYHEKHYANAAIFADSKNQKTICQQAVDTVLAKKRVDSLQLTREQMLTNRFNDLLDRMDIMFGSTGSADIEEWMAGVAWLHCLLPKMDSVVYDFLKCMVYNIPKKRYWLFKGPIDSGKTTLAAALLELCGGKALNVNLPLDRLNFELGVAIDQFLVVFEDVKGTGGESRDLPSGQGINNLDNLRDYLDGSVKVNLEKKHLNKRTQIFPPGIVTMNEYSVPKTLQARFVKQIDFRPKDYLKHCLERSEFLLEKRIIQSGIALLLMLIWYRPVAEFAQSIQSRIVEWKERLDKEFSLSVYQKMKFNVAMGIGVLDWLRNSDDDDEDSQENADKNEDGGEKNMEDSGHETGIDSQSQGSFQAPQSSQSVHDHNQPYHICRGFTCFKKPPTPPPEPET

[5] = molecular target: B2; test: co-IP of in vitro translated 35S-labeled proteins, anti-Myc beads

B1: binds [1].

B2: binds [2].

B3: binds [3].

B4: no binding [4].

B5: binds [5].
